Laboratory results published in PMC5964327.

Molecular target: T1, CHIP-myc (wild type), Q9UNE7
T1 chain: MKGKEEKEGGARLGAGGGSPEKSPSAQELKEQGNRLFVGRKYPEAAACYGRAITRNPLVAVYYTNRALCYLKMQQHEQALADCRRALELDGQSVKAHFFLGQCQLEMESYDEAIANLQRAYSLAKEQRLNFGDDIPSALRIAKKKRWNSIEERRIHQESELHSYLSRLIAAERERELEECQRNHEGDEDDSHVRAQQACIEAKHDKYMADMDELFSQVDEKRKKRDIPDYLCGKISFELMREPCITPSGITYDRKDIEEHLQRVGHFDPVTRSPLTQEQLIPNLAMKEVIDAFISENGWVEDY
Assay: co-immunoprecipitation (anti-flag IP, anti-myc immunoblot), quantified
Settings: chain shown with the change, serum deprived for 24 h, co-transfected with HSP70-V5 and CHIP-myc, read off a plot

B1: NEK10-flag (wild type), Q6ZWH5-1 T812A (protein)
chain: MPDQDKKVKTTEKSTDKQQEITIRDYSDLKRLRCLLNVQSSKQQLPAINFDSAQNSMTKSEPAIRAGGHRARGQWHESTEAVELENFSINYKNERNFSKHPQRKLFQEIFTALVKNRLISREWVNRAPSIHFLRVLICLRLLMRDPCYQEILHSLGGIENLAQYMEIVANEYLGYGEEQHTVDKLVNMTYIFQKLAAVKDQREWVTTSGAHKTLVNLLGARDTNVLLGSLLALASLAESQECREKISELNIVENLLMILHEYDLLSKRLTAELLRLLCAEPQVKEQVKLYEGIPVLLSLLHSDHLKLLWSIVWILVQVCEDPETSVEIRIWGGIKQLLHILQGDRNFVSDHSSIGSLSSANAAGRIQQLHLSEDLSPREIQENTFSLQAACCAALTELVLNDTNAHQVVQENGVYTIAKLILPNKQKNAAKSNLLQCYAFRALRFLFSMERNRPLFKRLFPTDLFEIFIDIGHYVRDISAYEELVSKLNLLVEDELKQIAENIESINQNKAPLKYIGNYAILDHLGSGAFGCVYKVRKHSGQNLLAMKEVNLHNPAFGKDKKDRDSSVRNIVSELTIIKEQLYHPNIVRYYKTFLENDRLYIVMELIEGAPLGEHFSSLKEKHHHFTEERLWKIFIQLCLALRYLHKEKRIVHRDLTPNNIMLGDKDKVTVTDFGLAKQKQENSKLTSVVGTILYSCPEVLKSEPYGEKADVWAVGCILYQMATLSPPFYSTNMLSLATKIVEAVYEPVPEGIYSEKVTDTISRCLTPDAEARPDIVEVSSMISDVMMKYLDNLSTSQLSLEKKLERERRRAQRYFMEANRNTVTCHHELAVLSHETFEKASLSSSSSGAASLKSELSESADLPPEGFQASYGKDEDRACDEILSDDNFNLENAEKDTYSEVDDELDISDNSSSSSSSPLKESTFNILKRSFSASGGERQSQTRDFTGGTGSRPRPALLPLDLLLKVPPHMLRAHIKEIEAELVTGWQSHSLPAVILRNLKDHGPQMGTFLWQASAGIAVSQRKVRQISDPIQQILIQLHKIIYITQLPPALHHNLKRRVIERFKKSLFSQQSNPCNLKSEIKKLSQGSPEPIEPNFFTADYHLLHRSSGGNSLSPNDPTGLPTSIELEEGITYEQMQTVIEEVLEESGYYNFTSNRYHSYPWGTKNHPTKR
response (arbitrary units) (+FSK (30'), parent: est. 100): 5 | response (arbitrary units) (-FSK, parent: est. 10): 28
